{"source": "paper PMC9378516", "about": "(Journal of molecular biology, 2022)", "proteins": {"B1": {"name": "TRF2 (hTERF2), full-length construct, residues 5-542 (natural protein, human, UniProt Q15554-3 5-542, looked up)", "chain": "AGTAGPASGPGVVRDPAASQPRKRPGREGGEGARRSDTMAGGGGSSDGSGRAAGRRASRSSGRARRGRHEPGLGGPAERGAGEARLEEAVNRWVLKFYFHEALRAFRGSRYGDFRQIRDIMQALLVRPLGKEHTVSRLLRVMQCLSRIEEGENLDCSFDMEAELTPLESAINVLEMIKTEFTLTEAVVESSRKLVKEAAVIICIKNKEFEKASKILKKHMSKDPTTQKLRNDLLNIIREKNLAHPVIQNFSYETFQQKMLRFLESHLDDAEPYLLTMAKKALKSESAASSTGKEDKQPAPGPVEKPPREPARQLRNPPTTIGMMTLKAAFKTLSGAQDSEAAFAKLDQKDLVLPTQALPASPALKNKRPRKDENESSAPADGEGGSELQPKNKRMTISRLVLEEDSQSTEPSAGLNSSQEAASAPPSKPTVLNQPLPGEKNPKVPKGKWNSSNGVEEKETWVEEDELFQVQAAPDEDSTTNITKKQKWTVEESEWVKAGVQKYGEGNWAAISKNYPFVNRTAVMIKDRWRTMKRLGMN"}}, "target": "the molecule itself", "assay": "AUC"}
{"protein": "B1", "values": [{"measurement": "stoichiometry N", "result": 2}]}
